Holding throughout (assay): purified protein
What all share (assay type): biochemical, uncultured Acetothermia bacterium
Details in all cases: standard reaction: 25 mM Tris-HCl pH 8, 0.05% Triton X-100, 50 °C

Substrate in series [1]: CC(=O)Oc1ccc([N+](=O)[O-])cc1
Substrate in series [2]: CCCC(=O)Oc1ccc([N+](=O)[O-])cc1
Substrate in series [3]: CCCCCCCC(=O)Oc1ccc([N+](=O)[O-])cc1
Substrate in series [4]: CCCCCCCCCC(=O)Oc1ccc([N+](=O)[O-])cc1

B1: EstDZ2 (uncultured Acetothermia bacterium) (protein)
chain: APPFSFQVYTDVVYYDGPDAHPTKHRLDLFVPDGLQDAPVLIFVHGGGWTSGDKNLYAFIGQAFAAQGFATAVINYRLSPQVQHPAHIEDVARAFSWVYKNIARYGGNPEKIFVTGHSAGGHLTALLALDEKYLQAHGLTLAAIKGAIPISGVYDVTPVLALYRTVFGADPDQRWDASPLAHVGPNKPPFLILYAQFDFPGLGLQAQQLFAELRTHNNEATLTEIPNRDHVTIVATIGASNDPTTEEI
notes: predicted signal peptide (aa 2-21) replaced by N-terminal hexa-histidine tag, kept; E. coli BL21(DE3); Ni-NTA; monomer, ~29 kDa; HGGG and GHSAG motifs; primer encodes APPFSF after His tag
Consider B1, for which the Michaelis constant (Km) in the series “purified protein [1]” was found to be 670 ± 150 µM; in “purified protein [2]”, 320 ± 90 µM; in the series “purified protein [3]”, 200 ± 20 µM; in “purified protein [4]”, 120 ± 10 µM. Further, the specificity constant (kcat/Km) in “purified protein [1]” amounted to 1.76e+06 M⁻¹ s⁻¹; in “purified protein [2]” it was 1.44e+07 M⁻¹ s⁻¹; in the series “purified protein [3]”, 1.04e+07 M⁻¹ s⁻¹; in “purified protein [4]” it was 7.55e+06 M⁻¹ s⁻¹.

These data come from article PMC5171882, “Metagenomic mining for thermostable esterolytic enzymes uncovers a new family of bacterial esterases” (Scientific Reports, 2016).
